Measurements: patent US5777073
Like-named read-outs stand apart in the source and are kept apart here. Blank lines part the entries; values can stand above or below the substance they belong to.

Experiments:
[1] = biological target: CRF receptors on rat anterior pituitary cells (rat)
[2] = biological target: CRF receptors on rat anterior pituitary cells (rat); remark: listed apart in the source
[3] = biological target: CRF receptors on rat anterior pituitary cells (rat); remark: listed apart in the source

in vitro biopotency: inhibition of ACTH secretion (times the Standard) [1]: 3.38
Substance: (cyclo 29-32) D-Phe^12, Nle^21,38, Glu^29, Lys^32 -r/hCRF(12-41) (peptide)

in vitro biopotency: inhibition of ACTH secretion (times the Standard) [2]: 4.91
Substance: (cyclo 28-32) D-Phe^12, Nle^21,38, Glu^28, D-Ala^31, Lys^32 !-r/hCRF(12-41) (peptide)

in vitro biopotency: inhibition of ACTH secretion (times the Standard) [3]: 3.12
Substance: (cyclo 28-31) D-Phe^12, Nle^21,38, Glu^28, Lys^31 !-r/hCRF(12-41) (peptide)
